In patent US20180215829A1 (CRESCENDO BIOLOGICS, published 2018):

How the values were obtained:
[1] = biological target: T1, recombinant human IL-17RA Fc fusion protein (R&D Systems 177-IR-100) (human, UniProt Q96F46 33-320); experiment: BIAcore T200 single-cycle kinetics, IL-17RA-Fc captured on protein G chip, VH as analyte
T1 construct: Bought protein; not shown: Fc domain of human IgG1
T1 sequence: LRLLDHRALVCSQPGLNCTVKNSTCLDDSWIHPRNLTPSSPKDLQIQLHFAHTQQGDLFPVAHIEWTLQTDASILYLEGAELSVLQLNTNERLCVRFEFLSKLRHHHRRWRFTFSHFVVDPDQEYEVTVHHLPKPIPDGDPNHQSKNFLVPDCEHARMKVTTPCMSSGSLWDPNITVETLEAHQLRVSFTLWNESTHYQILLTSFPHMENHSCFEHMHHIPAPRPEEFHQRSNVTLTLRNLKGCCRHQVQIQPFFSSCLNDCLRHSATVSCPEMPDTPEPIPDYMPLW
Description: Binding kinetics of anti-IL-17RA VH antibodies were measured on a BIAcore® T200 instrument. For IL-17RA, first a protein G chip was prepared by diluting protein G to 20 ug/ml in acetate buffer, pH 4 (BIAcore®, cat# BR-100-49) and then coupled 1200 RU to a CM5 Series S chip using amine coupling chemistry. This surface was then used to capture IL-17RA Fc fusion protein from solution: IL-17RA at 10 ug/ml in HBS injected for 10 seconds at 30 ul/min flow rate would capture approximately 100-150 RU of IL-17RA onto the protein G surface.
Binding kinetics of anti-IL-17RA VH antibodies were determined by single-cycle kinetics. VH antibodies were prepared in dilution series (typically 1:3 dilution series starting with 100 nM VH at the highest concentration), and then injected over the antigen coated surfaces and also a blank surface, starting with the lowest concentration of VH and then working progressively up to the highest concentration. VH binding kinetics were then determined from the (blank subtracted) sensorgram traces using 1:1 binding models and BIAevaluation software.

[2] = biological target: T1, recombinant human IL-17RA Fc fusion …; experiment: affinity against parent clone 2.1; method not given
[3] = biological target: T1, recombinant human IL-17RA Fc fusion …; experiment: receptor/ligand biochemical inhibition ELISA: VH competes with 1 nM IL-17A for coated IL-17RA-Fc
Description: VH, both purified and crude periplasmic extracts, were also tested for their ability to inhibit the interaction of IL-17A with recombinant IL-17RA-Fc. […] Following washing of excess coating antigen, as described above, the wells of the plate were incubated with 3% Marvel/PBS to block non-specific protein interactions. VH preparations, crude periplasmic extracts or purified VH, or suitable controls, were prepared with 1 nM recombinant IL-17A (Peprotech, cat# AF-200-17) in 3% skimmed milk powder/PBS solution in polypropylene plates or tubes. The mixture was then transferred to the assay plate and incubated for 1 hour at room temperature. Excess protein was removed by washing and bound IL-17A was detected by incubation with biotinylated anti-IL-17A Mab (R & D Systems, cat BAF317) followed by the addition of neutravidin-HRP (Pierce, cat#31030) and TMB substrate (Sigma, cat# T0440). The TMB reaction was stopped by addition of 0.5M H₂SO₄ and absorbances were measured at 450 nm in a plate reader.

[4] = biological target: T2, human IL-17RA on HT1080 cells (human, UniProt Q96F46 33-866); experiment: cell-based or functional assay
T2 sequence: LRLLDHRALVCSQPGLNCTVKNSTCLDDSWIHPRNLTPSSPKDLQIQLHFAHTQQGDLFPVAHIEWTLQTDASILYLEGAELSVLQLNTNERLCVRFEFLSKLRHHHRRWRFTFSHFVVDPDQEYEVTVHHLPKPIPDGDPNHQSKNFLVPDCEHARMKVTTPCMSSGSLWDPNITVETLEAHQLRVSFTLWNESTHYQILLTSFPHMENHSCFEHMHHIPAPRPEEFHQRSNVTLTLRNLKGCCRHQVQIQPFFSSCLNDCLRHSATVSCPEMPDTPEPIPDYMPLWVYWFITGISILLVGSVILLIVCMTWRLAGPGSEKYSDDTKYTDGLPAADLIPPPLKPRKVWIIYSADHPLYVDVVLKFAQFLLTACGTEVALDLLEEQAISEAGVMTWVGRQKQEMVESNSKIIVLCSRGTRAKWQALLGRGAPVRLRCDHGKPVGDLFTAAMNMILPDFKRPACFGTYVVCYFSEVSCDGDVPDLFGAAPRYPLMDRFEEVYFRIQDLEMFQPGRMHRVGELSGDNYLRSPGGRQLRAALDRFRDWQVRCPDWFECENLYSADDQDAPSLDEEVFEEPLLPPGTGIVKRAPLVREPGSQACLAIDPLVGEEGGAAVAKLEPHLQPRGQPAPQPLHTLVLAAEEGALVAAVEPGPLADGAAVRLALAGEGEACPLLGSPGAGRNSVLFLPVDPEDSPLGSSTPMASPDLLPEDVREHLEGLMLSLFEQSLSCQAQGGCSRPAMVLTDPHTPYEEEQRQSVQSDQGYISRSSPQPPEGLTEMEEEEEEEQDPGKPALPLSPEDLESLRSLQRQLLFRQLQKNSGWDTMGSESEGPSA

[5] = biological target: T2, human IL-17RA on HT1080 cells; experiment: cell-based or functional assay; remark: listed apart in the source

Kd [1]: 1.4 nM
koff [1]: 0.000799 s⁻¹
kon [1]: 579000 M⁻¹ s⁻¹
fold improvement in affinity against clone 2.1 [2]: 10 fold
IC50 [3]: 1.4 nM
Cell assay IC50 [4]: 61 nM
IC50 (nM), cell-based assay [5]: 165 nM
B1: VH clone 2.2 (VHH)
VHH: QVQLVQSGAEVKKPGASVKVSCKASGYPFTSYDINWVRQATGRSLEWMGWMNPTNGNTVYAQKFQDRVTMTRNTSISTAYMELSSLRSEDTAVYFCARGRRDDWKNNYWGQGTLVTVSS
notes: Human VH single domain antibody, no light chain; Optimised variant of clone 2.1; also called VH 2.2
